# Reference: paper PMC10904899, “Protein engineering of transaminase facilitating enzyme cascade reaction for the biosynthesis of azasugars” (iScience, 2024)
# Residue numbers refer to the chain shown, from its start. Names may count otherwise.
# B1: MvTA (Mycolicibacterium vanbaalenii PYR-1) (protein)
# chain: MGIDTGTSNLVAVEPGAIREDTPAGSVIQYSDYEIDYSSPFAGGVAWIEGEYLPAEDAKISIFDTGFGHSDLTYTVAHVWHGNIFRLGDHLDRLLDGARKLRLDSGYTKDELADITKKCVSLSQLRESFVNLTITRGYGKRKGEKDLSKLTHQVYIYAIPYLWAFPPAEQIFGTTAVVPRHVRRAGRNTVDPTIKNYQWGDLTAASFEAKDRGARTAILMDADNCVAEGPGFNVCIVKDGKLASPSRNALPGITRKTVFEIAGAMGIEAALRDVTSHELYDADEIMAVTTAGGVTPINTLDGVPIGDGEPGPVTVAIRDRFWALMDEPGPLIEAIQY
# notes: homodimer; PLP on Lys195
# B2: MvTA (Mycolicibacterium vanbaalenii PYR-1; A168E/H152N/H69K/K142P/K145R/L162I/R215G/S105P/S121M) (protein)
# chain: B1 chain with H69K, S105P, S121M, K142P, K145R, H152N, L162I, A168E, R215G
# notes: homodimer; PLP on Lys195
# B3: MvTA (Mycolicibacterium vanbaalenii PYR-1; A168E/H152N/H69R/K142P/K145R/L162I/R215G/S105P/S121M) (protein)
# chain: B1 chain with H69R, S105P, S121M, K142P, K145R, H152N, L162I, A168E, R215G
# notes: homodimer; PLP on Lys195
# Substrate: C[C@@H](N)c1ccccc1
# Assay: HPLC of acetophenone, nonlinear regression
# Type: biochemical, Mycolicibacterium austroafricanum
# Conditions: 20 mM D-fructose, 0.1 mM PLP, pH 6.0, 30°C
# From the text: HPLC of acetophenone, nonlinear regression on MvTA
Protein,Km [mM],kcat [s⁻¹],kcat/Km [M⁻¹ s⁻¹]
B1,0.71,0.0127,17.8
B2,3.93,0.189,48
B3,8.20,0.65,79.2
